This passage reports protein stability index results from the supplement of paper PMC10567573.

± gives the standard deviation.

A short description of the data set: protein stability index of a GFP-peptide fusion (GPS, HEK-293T) (PSI 1-6); higher = more stable. To be noted: c terminus: a fixed tail appended.
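Note: 24-mer peptide tiles fused after GFP, lentivirally expressed, FACS-sorted into six equal bins by GFP/DsRed ratio, decoded by Illumina sequencing, PSI is the read-weighted mean bin number.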

With VTHTEISPEQQFDRSVQRLLATRI [TMEM175], the protein stability index by setting is: (treatment: DMSO) 3.2 ± 0.28; (treatment: MLN4924 1 uM, 8 h) 3.34 ± 0.25.
For VTMSSLFKHILRTEGAFGLYRGLA [SLC25A25], in that order: 2.5 ± 0.69 and 2.65 ± 0.51.
For VVCRQLGLGFASNAFQETWYWHGD [LOXL2], in that order: 2.55 ± 0.55 and 2.42 ± 0.31.
With VVKQFVTGIIDSLTISPKAARVGL [MATN2], the protein stability index runs as follows: (treatment: DMSO) 2.15 ± 0.34; (treatment: MLN4924 1 uM, 8 h) 3.15 ± 1.4.
With VVPEKLDDLVPKGKKFLLLSINRY [ALG2], the protein stability index is, setting by setting: (treatment: DMSO) 2.07 ± 0.36; (treatment: MLN4924 1 uM, 8 h) 2.08 ± 0.42.
As to VVRLLLEHYRVQTQQTGTVRFDGY [FEM1B], the protein stability index is 2.62 ± 0.57 (treatment: DMSO) and 2.63 ± 0.58 (treatment: MLN4924 1 uM, 8 h).
As to VWNMTATRPKKMGSQLPKPRMLRE [FATE1], the protein stability index is, setting by setting: (treatment: DMSO) 2.94 ± 0.24; (treatment: MLN4924 1 uM, 8 h) 3 ± 0.12.
As for VYAGRPLSVIQMVAFLEQRASALL [FBXO34], the protein stability index is, setting by setting: (treatment: DMSO) 1.98 ± 0.39; (treatment: MLN4924 1 uM, 8 h) 2.29 ± 0.35.
Regarding VYSWPKNKKNILLRLLREEEYVAP [TRAF3IP2], the protein stability index runs as follows: (treatment: DMSO) 2.11 ± 0.68; (treatment: MLN4924 1 uM, 8 h) 2.5 ± 0.59.
For WATRKPPAPKSTYECRCIGEEKEM [TIA1], in that order: 2.98 ± 0.44 and 3.4 ± 0.58.
On the same counts, the results for WDIGRGKLYHQSKGPGAPQYPAGT [SPSB2] are 3.72 ± 0.095 and 3.53 ± 0.07.
On to WDPSVQSCKEGLSPRGPAPGEEKF [ZNF263], for which the protein stability index (treatment: DMSO) was 5.43 ± 0.1 and the protein stability index (treatment: MLN4924 1 uM, 8 h) was 5.46 ± 0.092.
WDSGCLAPPSTRTSHSLPESSVPS [PLEKHN1] had a protein stability index (treatment: DMSO) of 4.4 ± 0.59 and a protein stability index (treatment: MLN4924 1 uM, 8 h) of 4.64 ± 0.23.
For WEFKLSDPDEVARRWGKRKNKPKM [ETS1], the protein stability index runs as follows: (treatment: DMSO) 3.65 ± 0.27; (treatment: MLN4924 1 uM, 8 h) 3.67 ± 0.067.
In the case of WGVCEPQREEVEERMWAAIQSWDI [ZER1], the protein stability index by setting is: (treatment: DMSO) 3.35 ± 0.22; (treatment: MLN4924 1 uM, 8 h) 3.56 ± 0.3.
Regarding WICQRSTVASMMHRQETVDCLKKF [CAMK2D], the protein stability index worked out at 2.67 ± 0.15 (treatment: DMSO) and 2.43 ± 0.64 (treatment: MLN4924 1 uM, 8 h).
As for WMQVASLNEKRTFFHLSALKGYLY [KLHL13], the protein stability index by setting is: (treatment: DMSO) 2.76 ± 0.57; (treatment: MLN4924 1 uM, 8 h) 2.58 ± 0.36.
Consider WQLFGPFGAVTNVKVIRDFTTNKC [ELAVL3], for which the protein stability index runs as follows: (treatment: DMSO) 2.36 ± 0.37; (treatment: MLN4924 1 uM, 8 h) 2.2 ± 0.26.
Consider WQLLLFLCATHFGEPLEKVASVGN [KISS1], for which the protein stability index came out at 2.78 ± 1.2 (treatment: DMSO) and 2.29 ± 0.35 (treatment: MLN4924 1 uM, 8 h).
Sequence WSSRSPQERSRVLNQVADLLEQSL [ALDH8A1] returned a protein stability index (treatment: DMSO) of 2.8 ± 0.12 and a protein stability index (treatment: MLN4924 1 uM, 8 h) of 3.08 ± 0.54.
As for WTVANMEEIKKLTTDPDLILEVLR [LARP4], the protein stability index runs as follows: (treatment: DMSO) 2.15 ± 0.29; (treatment: MLN4924 1 uM, 8 h) 2.62 ± 0.27.
As for YAILDEKKSELLQRITQEQEKKLS [TRIM63], the protein stability index reads like this: (treatment: DMSO) 4.35 ± 0.17; (treatment: MLN4924 1 uM, 8 h) 4.52 ± 0.13.
Turning to YAVGGSDGTSPLNTVERYNPQENR [KLHL20], the protein stability index stood at 4.53 ± 0.33 (treatment: DMSO) and 4.79 ± 0.28 (treatment: MLN4924 1 uM, 8 h).
As to YDVEMTDELVGLPFSSHTYSQASE [FBXO34], the protein stability index is 4.52 ± 0.32 (treatment: DMSO) and 4.52 ± 0.23 (treatment: MLN4924 1 uM, 8 h).
Regarding YFISTVKRSWTSAQNACSEHGATL [CD69], the protein stability index by setting is: (treatment: DMSO) 2.09 ± 0.49; (treatment: MLN4924 1 uM, 8 h) 2.07 ± 0.3.
For the sequence YGFYLRAGSEQKGQIIKDIDSGSP [PDZK1], the protein stability index is, setting by setting: (treatment: DMSO) 3.2 ± 0.17; (treatment: MLN4924 1 uM, 8 h) 3.17 ± 0.36.
As for YGGSGDGLIPTGSGRHPSHSTTPS [ARFIP2], the protein stability index amounted to 4.26 ± 0.069 (treatment: DMSO) and 4.51 ± 0.29 (treatment: MLN4924 1 uM, 8 h).
Sequence YGTQRTLILESQNWRYATGGWETV [FUT8] registered a protein stability index (treatment: DMSO) of 2.1 ± 0.13 and a protein stability index (treatment: MLN4924 1 uM, 8 h) of 2.16 ± 0.14.
For YHAVVEPMLWNPSGTPKRYSLELG [C22orf31], the protein stability index was 2.77 ± 0.54 (treatment: DMSO) and 2.81 ± 0.17 (treatment: MLN4924 1 uM, 8 h).
On the same counts, the results for YHPEEFVCSQCGKVLEEGGFFEEK [PDLIM7] are 3.94 ± 0.5 and 3.93 ± 0.57.
On the same counts, the results for YKVSAASSFFFSGVFVGVISFGQL [SLC22A15] are 3.24 ± 0.1 and 3.25 ± 1.5.
Take YLHTVSDCDTSSICEDSFDGRSLS [SCARA5]: the protein stability index is 4.37 ± 0.13 (treatment: DMSO) and 4.51 ± 0.14 (treatment: MLN4924 1 uM, 8 h).
For YLKNLPLLSKYCGYREDNIPQLED [TPH1], in that order: 2.57 ± 0.09 and 2.77 ± 0.2.
Consider YLPSTEFSVSSTSRRIYRCRNCIN [IQUB], for which the protein stability index amounted to 2.62 ± 0.31 (treatment: DMSO) and 3.61 ± 0.38 (treatment: MLN4924 1 uM, 8 h).
Turning to YLVENNANISIANKYDNTCLMIAA [FEM1B], the protein stability index stood at 2.38 ± 0.1 (treatment: DMSO) and 2.21 ± 0.22 (treatment: MLN4924 1 uM, 8 h).
For the sequence YMYLVIEELTREAVAVDVAVPKRL [HAGHL], the protein stability index (treatment: DMSO) worked out at 2.57 ± 0.57 and the protein stability index (treatment: MLN4924 1 uM, 8 h) turned out to be 2.71 ± 0.41.
For YNPHPGFPELGYSYGGGSASSQHS [DVL3], in that order: 2.95 ± 0.36 and 3.29 ± 0.26.
On to YPCIPNHELVWAKMKGFGFWPAKV [ZMYND11], for which the protein stability index reads like this: (treatment: DMSO) 3.09 ± 1.4; (treatment: MLN4924 1 uM, 8 h) 2.19 ± 0.3.
With YQPAPYFAAEARYPIYVIPEPPPV [TENT5D], the protein stability index reads like this: (treatment: DMSO) 2.02 ± 0.18; (treatment: MLN4924 1 uM, 8 h) 2.35 ± 0.55.
On the same counts, the results for YSFRKLPDTQLLKFQLNKYTGEIK [PCDHGA10] are 2.39 ± 0.37 and 2.54 ± 0.3.
Consider YSLASGAGGGGSKGNSLKRSKSIR [RAB40C], for which the protein stability index reads like this: (treatment: DMSO) 4.37 ± 0.17; (treatment: MLN4924 1 uM, 8 h) 4.41 ± 0.26.
Sequence YSLQMKRVIACQKTAHDSNVLHVA [WDR41] returned a protein stability index (treatment: DMSO) of 2.23 ± 0.14 and a protein stability index (treatment: MLN4924 1 uM, 8 h) of 2.38 ± 0.32.
For YVINWFMSFGPEIKLNTSQQGRNQ [FAM104B], in that order: 2.67 ± 1.7 and 2.53 ± 0.71.
Consider YVLNLLYETKKHLVQLPNINRVST [PPEF2], for which the protein stability index worked out at 2.49 ± 0.68 (treatment: DMSO) and 2.59 ± 0.39 (treatment: MLN4924 1 uM, 8 h).
Consider YVTTNVSLIPPRSEQLVNFTGKAE [TMEM106C], for which the protein stability index runs as follows: (treatment: DMSO) 2.49 ± 0.57; (treatment: MLN4924 1 uM, 8 h) 2.8 ± 0.68.
